Experiment [1] deals with T1, bait vector (empty pBI-880, GAL4 (1-147) alone) (UniProt P04386 1-147).
T1 construct: range 1-147; Negative control: bait vector without insert; also called empty bait
Briefly: yeast two-hybrid, K-box prey with empty bait. From the text:
Previous studies have shown that the MADS-domain and I regions may be important for homodimer formation by AG and by AP1 (Krizek and Meyerowitz, 1996; Mizukami et al., 1996; Riechmann et al., 1996) and that the I region and K-domain are needed for the formation of AP3/PI heterodimers (Krizek and Meyerowitz, Proc. Natl. Acad. Sci. USA 93, 4063-4070 (1996); Riechmann et al., Proc. Natl. Acad. Sci. USA 93, 4793-4798 (1996)). In addition, the K-domain of AG is sufficient to promote interactions with SEP1, SEP2, SEP3 and AGL6 in yeast (Fan et al., Plant J. 11, 999-1010 (1997)). Since many of the CAL- and AP1-interacting clones isolated as part of our study lacked the MADS-domain and I regions, we tested if the K-domain itself was sufficient to promote the observed interactions. First, we subcloned the K-box regions of SEP3, SOC1, SVP and AGL24 into the prey vector, and tested their ability to activate the reporter using either the empty bait or the cruciferin gene cloned into the bait plasmid. […] However, other protein domains appear to enhance these interactions since the level of reporter gene activation is higher when larger constructs are used.

The target in experiment [2] is T2, CAL bait (GAL4 (1-147) fused to the intact CAL coding region in pBI-880) (Arabidopsis thaliana).
T2 construct: range 1-147; also called CAULIFLOWER; full-length CAL cDNA as bait
Briefly: yeast two-hybrid with CAL bait. The source says: To confirm the specificity of these interactions, the longest clone of each class was transformed back into yeast with the AP1 bait, the bait vector, and an inert control bait, cruciferin. The strains containing the AP1 bait tested positive for both β-Gal activity and HIS prototrophy. The strains containing the bait vector or the cruciferin bait were negative in both assays. We then tested if the three new AP1-interacting clones could also interact with CAL, since they had not been isolated in the CAL library screen. However, AGL27, the RNA binding protein, and the novel protein were unable to interact with CAL in yeast.

Experiment [3] concerns the target T1, bait vector (empty pBI-880, GAL4 …). The experiment is described as follows: yeast two-hybrid retest, B-Gal and HIS prototrophy. The source says: To confirm the specificity of the observed interactions, the longest and shortest clone of each class was transformed back into a yeast strain that contained either the CAL bait, the bait vector, or an inert control bait, cruciferin. The strains containing the CAL bait tested positive for both B-Gal activity and HIS prototrophy. The strains containing the bait vector or the cruciferin bait were negative in both assays, as they were not able to grow on plates lacking histidine and the yeast colonies were completely white in the B-Gal assay.

B1: SVPK (K-box region of SVP in prey vector pBI771) (other, not shown: small tags and cut ends)
chain: MSDHARMSKEIADKSHRLRQMRGEELQGLDIEELQQLEKALETGLTRVIETKSDKIMSEISELQKKG
notes: also called SVP K-box; K-box prey construct
Take B1: the binding result in experiment [1] is reported as “no binding”.

B2: SOC1K (K-box region of SOC1 in prey vector pBI771) (other, not shown: small tags and cut ends)
chain: MKYEAANMMKKIEQLEASKRKLLGEGIGTCSIEELQQIEQQLEKSVKCIRARKTQVFKEQIEQLKQKE
notes: also called SOC1 K-box; K-box prey construct
For B2, the binding result in experiment [1] was “no binding”.

B3: SEP3K (K-box region of SEP3 in prey vector pBI771) (other)
chain: SQQEYLKLKERYDALQRTQRNLLGEDLGPLSTKELESLERQLDSSLKQIRALRTQFMLDQLNDLQSK
notes: also called SEP3 K-box; K-box prey construct; not shown: fusion partner encoded by prey vector pBI771
In the case of B3, the binding result in experiment [1] is listed as “no binding”.

B4: AGL27 clone isolated in the AP1 two-hybrid screen (one clone) (other)
chain: MGRRKIEIKRIENKSSRQVTFSKRRNGLIDKARQLSILCESSVAVVVVSASGKLYDSSSGDDISKIIDRYEIQHADELRALDLEEKIQNYLPHKELLETVQSKLEEPNVDNVSVDSLISLEEQLETALSVSRARKAELMMEYIESLKEKEKLLREENQVLASQLSEKKGMSHR
notes: also called new MADS box gene designated AGL27; not shown: fusion partner encoded by prey vector pBI771
Turning to B4, the binding result in experiment [2] was “no binding”.

B5: AGL24K (K-box region of AGL24 in prey vector pBI771) (other, not shown: small tags and cut ends)
chain: MLENCNLSRLSKEVEDKTKQLRKLRGEDLDGLNLEELQRLEKLLESGLSRVSEKKGECVMSQIFSLE
notes: also called AGL24 K-box; K-box prey construct
Regarding B5, the binding result in experiment [1] is “no binding”.

B6: shortest AGL24 clone from the CAL two-hybrid screen (other)
chain: EVEDKTKQLRKLRGEDLDGLNLEELQRLEKLLESGLSRVSEKKGECVMSQIFSLEKRGSELVDENKRLRDKLETLERAKLTTLKEALETESVTTNVSSYDSGTPLEDDSDTSLKLGLPSWE
notes: Lacks the MADS domain and I region; also called shortest clone of each class; shortest clones isolated in the screen; not shown: fusion partner encoded by prey vector pBI771
For B6, the binding result in experiment [3] is listed as “no binding”.

Values taken from patent publication US20040229366A1 (University of California, published 2004).
